From the Immune Epitope Database (IEDB) come the findings set out here.

In one test the target is HLA-A*29:02. In words: IEDB peptide-MHC binding, purified MHC/competitive/fluorescence; filed as Kd, often an IC50 or EC50 that approximates it; ≥ and ≤ were set here for values at or beyond the usual limits of such assays.
The target of a further test is HLA-A*31:01. The description is as above.
Test [1] deals with HLA-A*03:01. The description is as above.
Test [2] concerns the target HLA-B*15:01. Described as above. Particulars: source organism: Escherichia coli 536.
In test [3] the target is HLA-B*15:01. In words: IEDB peptide-MHC binding, purified MHC/competitive/radioactivity; filed as Kd, often an IC50 or EC50 that approximates it; ≥ and ≤ were set here for values at or beyond the usual limits of such assays. Conditions: source organism: Dengue virus 4 Philippines/H241/1956.
A further test addresses HLA-A*30:02. The description is as above. Conditions: source organism: Dengue virus 4 Philippines/H241/1956.
Test [4] concerns the target HLA-A*11:01. In words: IEDB peptide-MHC binding, purified MHC/direct/fluorescence; filed as Kd, often an IC50 or EC50 that approximates it; ≥ and ≤ were set here for values at or beyond the usual limits of such assays.
In test [5] the target is HLA-A*11:01. In words: IEDB peptide-MHC binding, purified MHC/competitive/fluorescence; ≥ and ≤ were set here for values at or beyond the usual limits of such assays.
For test [6], the target named is HLA-A*03:01. Described as above.
The target of test [7] is HLA-A*03:01. In words: IEDB peptide-MHC binding, purified MHC/direct/fluorescence; filed as Kd, often an IC50 or EC50 that approximates it; ≥ and ≤ were set here for values at or beyond the usual limits of such assays.
Test [8] concerns the target HLA-B*15:17. Described as above. Particulars: source organism: West Nile virus.
The target in a further test is HLA-B*58:01. Described as above. Particulars: source organism: West Nile virus.
For test [9], the target named is HLA-B*57:01. Described as above. Particulars: source organism: West Nile virus.
Test [10] addresses HLA-A*02:01. In words: IEDB peptide-MHC binding, purified MHC/competitive/fluorescence; filed as Kd, often an IC50 or EC50 that approximates it; ≥ and ≤ were set here for values at or beyond the usual limits of such assays.
In the next test the target is HLA-A*02:11. Described as above.
Test [11] addresses HLA-B*15:01. In words: IEDB peptide-MHC binding, purified MHC/competitive/fluorescence; ≥ and ≤ were set here for values at or beyond the usual limits of such assays. Particulars: source organism: Zaire ebolavirus.
A further test has as its target HLA-C*05:01. In words: IEDB peptide-MHC binding, purified MHC/direct/fluorescence; filed as Kd, often an IC50 or EC50 that approximates it; ≥ and ≤ were set here for values at or beyond the usual limits of such assays.
For test [12], the target named is HLA-A*69:01. The description is as above. Particulars: source organism: West Nile virus.
For test [13], the target named is HLA-B*15:17. In words: IEDB peptide-MHC binding, purified MHC/competitive/fluorescence; filed as Kd, often an IC50 or EC50 that approximates it; ≥ and ≤ were set here for values at or beyond the usual limits of such assays. Particulars: source organism: Kurkino virus.
The target of a further test is HLA-A*26:01. The description is as above. Conditions: source organism: Kurkino virus.
For a further test, the target named is HLA-B*46:01. The test is described as above. Particulars: source organism: Kurkino virus.
Test [14] deals with HLA-B*57:01. The description is as above. Conditions: source organism: Kurkino virus.
The target of test [15] is HLA-A*69:01. The description is as above.
A further test deals with HLA-B*39:01. The description is as above. Conditions: source organism: Kurkino virus.
A further test concerns the target HLA-B*27:03. The description is as above. Particulars: source organism: Kurkino virus.
Another test deals with HLA-B*18:01. Described as above. Particulars: source organism: Kurkino virus.
For the next test, the target named is HLA-B*51:01. Described as above. Particulars: source organism: Kurkino virus.
Test [16] concerns the target HLA-A*02:19. In words: IEDB peptide-MHC binding, purified MHC/direct/fluorescence; filed as Kd, often an IC50 or EC50 that approximates it; ≥ and ≤ were set here for values at or beyond the usual limits of such assays. Conditions: source organism: Convict Creek 107 virus.
The target in a further test is HLA-A*02:12. The description is as above. Conditions: source organism: Convict Creek 107 virus.
In test [17] the target is HLA-A*02:19. As to the kind of experiment: IEDB peptide-MHC binding, purified MHC/competitive/fluorescence; filed as Kd, often an IC50 or EC50 that approximates it; ≥ and ≤ were set here for values at or beyond the usual limits of such assays. Particulars: source organism: Human immunodeficiency virus 1.
The target in a further test is HLA-B*45:06. The test is described as above.
The next test has as its target HLA-B*15:42. The test is described as above.
The next test addresses HLA-B*83:01. The description is as above.
A further test deals with HLA-B*40:01. In words: IEDB peptide-MHC binding, purified MHC/direct/fluorescence; filed as Kd, often an IC50 or EC50 that approximates it; ≥ and ≤ were set here for values at or beyond the usual limits of such assays. Conditions: source organism: Mycobacterium tuberculosis variant bovis.
In test [18] the target is HLA-A*02:01. As to the kind of experiment: IEDB peptide-MHC binding, purified MHC/competitive/fluorescence; ≥ and ≤ were set here for values at or beyond the usual limits of such assays. Particulars: source organism: Zaire ebolavirus.
Where [19] appears, read: source organism: Escherichia coli 536.
Where [20] appears, read: source organism: dengue virus type 4.
The mark [21] stands for this setting: source organism: Zaire ebolavirus.
The mark [22] stands for this setting: source organism: Vaccinia virus WR.
Where [23] appears, read: source organism: West Nile virus.
Where [24] appears, read: source organism: Sudan ebolavirus.
Where [25] appears, read: source organism: Vaccinia virus Copenhagen.
Setting [26] is: source organism: Brucella abortus bv. 2 str. 86/8/59.
Setting [27] is: source organism: Vibrio vulnificus YJ016.
The mark [28] stands for this setting: source organism: Eastern equine encephalitis virus (STRAIN VA33[TEN BROECK]).
The mark [29] stands for this setting: source organism: Human immunodeficiency virus 1.
Where [30] appears, read: source organism: Mycobacterium tuberculosis variant bovis.
Where [31] appears, read: source organism: Mycobacterium tuberculosis.
The mark [32] stands for this setting: source organism: Yersinia pestis Nepal516.
Where [33] appears, read: source organism: Yersinia pestis.

Some results are limits rather than exact numbers.

As usually defined, the Kd is the constant that tells how readily two partners part at equilibrium. Take IFFLPQFYY: in the test with HLA-A*29:02 (source organism: Listeria monocytogenes FSL R2-561), the Kd came to 1.6 nM.

Take VMADFDLEM: in the test with HLA-A*29:02 (source organism: Vibrio cholerae NCTC 8457), the Kd is not above 0.1 nM.

Take KLIAVPHTK: the results for the Kd in the test with HLA-A*31:01 (setting [19]), with HLA-A*03:01 [1] (setting [19]) and in the test with HLA-B*15:01 [2] were 900 nM, 135 nM and not below 20000 nM, respectively.

Regarding KVASAGISY, the Kd is not below 20000 nM with HLA-A*31:01 (setting [20]), 1.85 nM in the test with HLA-B*15:01 [3], 40.4 nM in the test with HLA-A*30:02 and 52.1 nM in the test with HLA-A*11:01 [4] (setting [20]).

With MLYKSSKSR, the Kd is 51.7 nM with HLA-A*31:01 (source organism: Kurkino virus) and 3.2 nM with HLA-A*03:01 [1] (source organism: Kurkino virus).

Broadly, the IC50 is the midpoint of a concentration-inhibition curve. As for VQQGIVRQR, the IC50 in the test with HLA-A*11:01 [5] (setting [21]) is 8370 nM; in the test with HLA-A*03:01 [6] (setting [21]) it was not below 160000 nM.

For the sequence KHVGLITCK, the results for the IC50 in the test with HLA-A*11:01 [5] (setting [22]) and in the test with HLA-A*03:01 [6] (setting [22]) were not below 80000 nM and 47200 nM, respectively.

As to RVIPPSLLR, the figures for the Kd with HLA-A*31:01 (source organism: Mycobacterium tuberculosis C) and with HLA-A*03:01 [7] (source organism: Mycobacterium leprae) were 13.5 nM and 1750 nM, respectively.

In the case of ITYTDVLRY, the Kd with HLA-A*31:01 (setting [23]) was not below 20000 nM; with HLA-B*15:17 [8], not above 1 nM; with HLA-A*11:01 [4] (setting [23]) it was 14.8 nM; with HLA-B*58:01 it was 38 nM; with HLA-A*03:01 [7] (setting [23]), 144 nM; in the test with HLA-B*57:01 [9], 105 nM.

Turning to QLPRDKFRK, the IC50 with HLA-A*11:01 [5] (setting [24]) was determined as 723 nM; with HLA-A*03:01 [6] (setting [24]) it was 3380 nM.

Take TITEKTFKD: in the test with HLA-A*11:01 [5] (setting [25]), the IC50 was found to be 36500 nM.

In the case of ILDDPEIYP, the Kd was found to be 12000 nM in the test with HLA-A*02:01 [10] (setting [26]) and 677 nM with HLA-A*02:11 (setting [26]).

In the test with HLA-A*11:01 [5] (source organism: Vaccinia virus), TTQSIHENK showed an IC50 of 6040 nM.

For ATGFPFFDR, the figures for the Kd with HLA-A*31:01 (setting [27]), with HLA-A*11:01 [4] (setting [27]) and in the test with HLA-A*03:01 [7] (setting [27]) were 2.35 nM, 1.1 nM and not below 20000 nM, respectively.

The sequence YFNDPALGH showed a Kd in the test with HLA-A*29:02 (source organism: Giardia lamblia ATCC 50803) of 114 nM.

The sequence ANNNRLPKR yielded an IC50 with HLA-A*11:01 [5] (setting [22]) of 11700 nM.

Consider ASLPKTSGH, for which the figures for the IC50 with HLA-A*11:01 [5] (setting [21]), in the test with HLA-A*03:01 [6] (setting [21]) and with HLA-B*15:01 [11] were 2610 nM, 20100 nM and not below 143000 nM, respectively.

On to FPSVFINPV, for which the Kd with HLA-C*05:01 (source organism: Myxoma virus) is not below 20000 nM.

On to FLAVGGVLL, for which the Kd in the test with HLA-C*05:01 (setting [23]) is 4180 nM; in the test with HLA-A*69:01 [12], not below 20000 nM.

With WFLYVSQQI, the Kd in the test with HLA-B*15:17 [13], with HLA-A*26:01, with HLA-B*46:01, with HLA-B*57:01 [14], in the test with HLA-A*69:01 [15] (source organism: Kurkino virus) and in the test with HLA-B*39:01 was not below 20000 nM in each case. Moreover, the Kd in the test with HLA-B*27:03, with HLA-B*18:01, in the test with HLA-B*51:01, with HLA-A*03:01 [7] (source organism: Convict Creek 107 virus), with HLA-A*02:19 [16] and with HLA-A*02:12 was not below 20000 nM throughout.

Turning to ITYGSVSWR, the Kd came to 1.5 nM with HLA-A*31:01 (source organism: Eastern equine encephalitis virus), 6.8 nM with HLA-A*11:01 [4] (setting [28]) and 61.2 nM with HLA-A*03:01 [7] (setting [28]).

For the sequence ELADQLIHL, the Kd with HLA-A*02:01 [10] (setting [29]) is 1160 nM; in the test with HLA-A*02:19 [17], 6.75 nM; with HLA-A*69:01 [15] (setting [29]) it was not above 1 nM; with HLA-A*02:11 (setting [29]), 26.2 nM.

TKLYKNKSK: the IC50 was found to be 57500 nM in the test with HLA-A*11:01 [5] (setting [25]) and 44300 nM with HLA-A*03:01 [6] (setting [25]).

On to REAPYELNI, for which the Kd with HLA-B*45:06 (setting [30]) is not below 5000 nM; in the test with HLA-B*15:42 (setting [30]), not below 5000 nM; with HLA-B*83:01 (setting [30]), not below 5000 nM; with HLA-B*40:01, 62.8 nM.

Turning to VIAFLILAK, the IC50 stood at 564 nM with HLA-A*11:01 [5] (setting [24]) and 1690 nM with HLA-A*03:01 [6] (setting [24]).

Turning to AAMVLLLRK, the Kd is not below 20000 nM with HLA-A*31:01 (source organism: Mycobacterium tuberculosis variant bovis BCG str. Pasteur 1173P2), not above 1 nM with HLA-A*11:01 [4] (setting [31]) and 79.5 nM with HLA-A*03:01 [7] (setting [31]).

Regarding GSYFSGFYK, the Kd with HLA-B*45:06 (setting [32]) is not below 5000 nM; in the test with HLA-B*15:42 (setting [32]) it was not below 5000 nM; with HLA-A*31:01 (setting [32]), not above 1 nM; with HLA-B*83:01 (setting [32]), not below 5000 nM; in the test with HLA-A*11:01 [4] (setting [33]) it was not above 1 nM; with HLA-A*03:01 [7] (setting [33]), 13.7 nM.

The sequence YYFDIYNKQ had a Kd with HLA-A*29:02 (source organism: Listeria monocytogenes EGD-e) of 73 nM.

In the case of EMYRHILRS, the IC50 with HLA-A*02:01 [18] was 8880 nM; with HLA-A*03:01 [6] (setting [21]) it was not below 96900 nM.

Consider ATTAAGPPK, for which the half-maximal inhibitory concentration (IC50) was not below 354000 nM with HLA-A*02:01 [18], 762 nM with HLA-A*11:01 [5] (setting [21]) and 6300 nM with HLA-A*03:01 [6] (setting [21]).
